In publication PMC2695398:

Target: Soluble HLA-DR15 (DRA, DRB1*1501) (human)
Assay: fluorescence polarisation

fold acceleration of peptide binding by DM at pH 4.7: 15 fold | fold acceleration of peptide binding by DM at pH 5.6: 8 fold | fold acceleration of peptide binding by J10-1 at pH 4.7: 15.6 fold | fold acceleration of peptide binding by J10-1 at pH 5.6: 28 fold | fold acceleration of peptide binding by J10-1 at pH 7.1: 12.6 fold | fold acceleration of peptide exchange by 10 uM J10-1: 15.9 fold | fold acceleration of peptide exchange by 30 uM J10-1: 66.4 fold | fold faster rate of binding with DR15/CLIP than with DR15/pMBP as input complex: > 10 fold | half-life of the complex (t1/2) with 100 uM J10: 4.48 h | half-life of the complex (t1/2) with 100 uM J10-1: 1.93 h | half-life of the complex (t1/2), no small molecule: 35 h
Substance: Alexa488 labeled derivative of the human myelin basic protein (MBP) 85-99 peptide
